Experimental data as given in the supplement of paper PMC7125110.
± gives the standard error. Variants at the floor of the assay were thinned out.

B1: glmS ribozyme (parent)
chain: AUAAAAGCGCCAGAACUACAGAAAUGUAGUUGACGAGGAGGAGGUUUAUCGAAUUUUCGGCGGAUGCCUCCAAA

Tests used:
Details in all cases: with glucosamine-6-phosphate
[1] = variants of: B1; assay: self-cleavage kobs at 160 uM GlcN6P; higher = faster cleavage; RNA array
In short: (§1)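 Barcoded ribozyme variants were transcribed in situ on sequenced MiSeq chips by E. coli RNA polymerase. At 37 °C, a hybridised Cy3 probe tracked them while glucosamine-6-phosphate (40 μM to 10 mM) in HEPES/KCl/Mg(OAc)2 buffer flowed in and tiles were imaged over ~14 h. Per-tile medians of signals normalised to baseline and to non-cleaving reference variants were fit to one- or two-exponential decays, giving kobs. kcat and KM came from weighted Michaelis–Menten fits across concentrations.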

[2] = variants of: B1; assay: self-cleavage kobs at 640 uM GlcN6P; higher = faster cleavage; RNA array
In short: as §1

[3] = variants of: B1; assay: self-cleavage kobs at 2500 uM GlcN6P; higher = faster cleavage; RNA array
In short: as §1

[4] = variants of: B1; assay: self-cleavage kobs at 10000 uM GlcN6P; higher = faster cleavage; RNA array
In short: as §1

Variant | self-cleavage kobs at 160 uM GlcN6P [1] [s⁻¹] | self-cleavage kobs at 640 uM GlcN6P [2] [s⁻¹] | self-cleavage kobs at 2500 uM GlcN6P [3] [s⁻¹] | self-cleavage kobs at 10000 uM GlcN6P [4] [s⁻¹]
C58G C70A | 0.000411 ± 0.00017 | 4.04e-05 ± 1.9e-05 | 5.93e-05 ± 1.4e-05 | 
A6C G41U C68U C70A | < 1e-05 |  | 3.76e-05 ± 1.6e-05 | 
C11G G32A U65G | < 1e-05 | < 1e-05 |  | < 1e-05
G40U U45A U56G | 6.56e-05 ± 1.6e-05 |  | 0.000611 ± 0.00014 | 
C34G U56A G62A C67U | < 1e-05 |  |  | 
G40A U45C | 4.64e-05 ± 1.6e-05 |  | 0.000553 ± 0.00016 | 
G44U C61A C67U C70G | < 1e-05 | < 1e-05 | < 1e-05 | 
G60A C61U | < 1e-05 | < 1e-05 | < 1e-05 | < 1e-05
G29U U45C U56C | < 1e-05 |  |  | 
A15G G29U C34U | < 1e-05 |  |  | 
G13C A14C U55G G59U | < 1e-05 | < 1e-05 |  | 
C11U C61A G63C | < 1e-05 | < 1e-05 |  | 
A33U U47A G62U A64G C71U | < 1e-05 | < 1e-05 |  | 
A39C U57G C71A | < 1e-05 | < 1e-05 | < 1e-05 | 
C8U U30C G59U | < 1e-05 | < 1e-05 | < 1e-05 | 
A39G U46G A53C | 5.35e-05 ± 2.3e-05 | 0.000315 ± 0.00012 |  | 
G35U A39U | < 1e-05 | < 1e-05 | < 1e-05 | 
A33G A42U G59U | < 1e-05 |  |  | 
G35A G43U U45C A53G G59A | < 1e-05 | < 1e-05 |  | 

Variant | self-cleavage kobs at 160 uM GlcN6P [1] [s⁻¹] | self-cleavage kobs at 640 uM GlcN6P [2] [s⁻¹] | self-cleavage kobs at 2500 uM GlcN6P [3] [s⁻¹] | self-cleavage kobs at 10000 uM GlcN6P [4] [s⁻¹]
A39G G62A | < 1e-05 |  | < 1e-05 | < 1e-05
A14C G29U C50U A52G C58G | 0.000474 ± 0.00018 |  | 7.98e-05 ± 3.9e-05 | 
A33G C67G C70A | 4.49e-05 ± 2.2e-05 |  |  | 
U55A C58U | < 1e-05 |  |  | 7.74e-05 ± 6.6e-06
C50G G62U G66C C70A | 7.6e-05 ± 1.6e-05 | 0.000118 ± 2.5e-05 |  | 
G9A A12U U31A A52G G59C | < 1e-05 |  | < 1e-05 | 
G35A G41C U69A | < 1e-05 | < 1e-05 | < 1e-05 | 
A15G A33C A64U | < 1e-05 |  | < 1e-05 | 
G41A U55G C71A | 5.4e-05 ± 1.6e-05 | 8.59e-05 ± 2.3e-05 | 0.000196 ± 3.5e-05 | 
G40A C50U | < 1e-05 | < 1e-05 |  | < 1e-05
G7C C16G | < 1e-05 | < 1e-05 |  | < 1e-05
U49C G62U | < 1e-05 | < 1e-05 | < 1e-05 | < 1e-05
C11U G40C G43A G60U U69G C70U | < 1e-05 |  | < 1e-05 | 
A12U G13U A48U G51C U54G C71U | < 1e-05 | < 1e-05 | < 1e-05 | 
C8U A15G G29A | < 1e-05 | < 1e-05 | < 1e-05 | 
C8A U31G G62A | < 1e-05 |  | < 1e-05 | 
A14G C16U U46C | 0.000248 ± 7.7e-05 |  |  | 
G38A A64G C67U | < 1e-05 |  |  | 
C11A C16A | < 1e-05 |  |  | 2.86e-05 ± 1e-05

Variant | self-cleavage kobs at 160 uM GlcN6P [1] [s⁻¹] | self-cleavage kobs at 640 uM GlcN6P [2] [s⁻¹] | self-cleavage kobs at 2500 uM GlcN6P [3] [s⁻¹] | self-cleavage kobs at 10000 uM GlcN6P [4] [s⁻¹]
C10U A20G U55C | < 1e-05 |  |  | 
A42C G62C G63U U69A | < 1e-05 |  | < 1e-05 | 
A33U G38A A48G G66U U69G | 4.81e-05 ± 1.6e-05 | 0.000108 ± 2.9e-05 |  | 
G7C G13C A48G C70A | < 1e-05 | < 1e-05 | < 1e-05 | 
U31A A33G C34U G59C | < 1e-05 | < 1e-05 |  | 
C34U G43U C50A G51U U55G | < 1e-05 |  |  | 
G41U G44C U54C | < 1e-05 | < 1e-05 | < 1e-05 | 
A6G C58U U65C | < 1e-05 |  | < 1e-05 | 
G9A C10U G13A A52C | < 1e-05 | < 1e-05 | < 1e-05 | 
A6C C8U C34A | < 1e-05 | < 1e-05 | < 1e-05 | 
U57G G63C | < 1e-05 | < 1e-05 | < 1e-05 | 
C8G U30A G40U | < 1e-05 |  | < 1e-05 | 
A6C A15U C71G | < 1e-05 |  |  | 
U30G A39U A42U | 0.000126 ± 5.7e-05 |  |  | 
G51U G60C C70U | < 1e-05 | < 1e-05 |  | 
C34U G35U A39C G63A C67U | < 1e-05 |  |  | 
C34U C50G C68A | 9.29e-05 ± 2.9e-05 |  | 9.73e-05 ± 2.8e-05 | 
C8U A14U G37U G41U | < 1e-05 | < 1e-05 | < 1e-05 | 
